The values below come from US20220073613A1 (XILIO DEVELOPMENT, published 2022).

To fix the notation:
B1: Antibody 2-9 (antibody, human IgG1, kappa)
light: ACPFPALELCGGSSPPHEQLTVSGGEIVLTQSPDFQSVTPKEKVTITCSANSALSYMYWYQQKPDQSPKLWVHGTSNLASGVPSRFSGSGSGTDFTLTINSLEAEDAATYYCHHWSNTQWTFGGGTKVEIKRTVAAPSVFIFPPSDEQLKSGTASVVCLLNNFYPREAKVQWKVDNALQSGNSQESVTEQDSKDSTYSLSSTLTLSKADYEKHKVYACEVTHQGLSSPVTKSFNRGEC
heavy: not shown
B2: Antibody 2-12 (antibody, human IgG1, kappa)
light: ACPFPALELCGSPGSPKPILFFRLSGGEIVLTQSPDFQSVTPKEKVTITCSANSALSYMYWYQQKPDQSPKLWVHGTSNLASGVPSRFSGSGSGTDFTLTINSLEAEDAATYYCHHWSNTQWTFGGGTKVEIKRTVAAPSVFIFPPSDEQLKSGTASVVCLLNNFYPREAKVQWKVDNALQSGNSQESVTEQDSKDSTYSLSSTLTLSKADYEKHKVYACEVTHQGLSSPVTKSFNRGEC
heavy: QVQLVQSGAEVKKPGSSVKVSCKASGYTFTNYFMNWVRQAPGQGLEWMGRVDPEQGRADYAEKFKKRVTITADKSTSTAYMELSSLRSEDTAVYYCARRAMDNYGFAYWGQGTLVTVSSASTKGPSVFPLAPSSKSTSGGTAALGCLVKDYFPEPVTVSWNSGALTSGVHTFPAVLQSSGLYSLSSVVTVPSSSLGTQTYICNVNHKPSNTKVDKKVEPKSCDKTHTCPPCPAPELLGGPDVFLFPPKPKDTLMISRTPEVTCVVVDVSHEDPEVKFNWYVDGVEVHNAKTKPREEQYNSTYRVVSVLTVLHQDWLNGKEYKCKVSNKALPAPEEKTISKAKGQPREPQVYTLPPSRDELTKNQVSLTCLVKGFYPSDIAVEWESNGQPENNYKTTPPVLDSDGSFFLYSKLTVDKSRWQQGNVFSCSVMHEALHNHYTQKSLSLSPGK
B3: Antibody 2-13 (antibody, human IgG1, kappa)
light: ACPFPALELCGGSSPPRAAAVKSPSGGEIVLTQSPDFQSVTPKEKVTITCSANSALSYMYWYQQKPDQSPKLWVHGTSNLASGVPSRFSGSGSGTDFTLTINSLEAEDAATYYCHHWSNTQWTFGGGTKVEIKRTVAAPSVFIFPPSDEQLKSGTASVVCLLNNFYPREAKVQWKVDNALQSGNSQESVTEQDSKDSTYSLSSTLTLSKADYEKHKVYACEVTHQGLSSPVTKSFNRGEC
heavy: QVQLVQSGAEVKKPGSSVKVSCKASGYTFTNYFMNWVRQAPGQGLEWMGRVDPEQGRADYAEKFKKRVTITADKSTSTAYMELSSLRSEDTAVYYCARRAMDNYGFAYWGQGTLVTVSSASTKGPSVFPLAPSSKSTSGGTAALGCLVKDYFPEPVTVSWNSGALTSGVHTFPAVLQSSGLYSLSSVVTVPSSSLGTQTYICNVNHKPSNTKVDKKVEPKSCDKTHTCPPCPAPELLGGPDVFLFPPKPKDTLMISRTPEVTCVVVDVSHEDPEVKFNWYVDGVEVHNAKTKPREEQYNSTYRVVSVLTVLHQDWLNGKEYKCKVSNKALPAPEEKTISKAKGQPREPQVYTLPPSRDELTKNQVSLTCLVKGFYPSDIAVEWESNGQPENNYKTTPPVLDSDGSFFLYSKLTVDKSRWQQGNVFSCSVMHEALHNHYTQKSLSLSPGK
B4: Antibody 2-11 (antibody, human IgG1, kappa)
light: ACPFPALELCSSPSPSGGGGIGQLTASGGEIVLTQSPDFQSVTPKEKVTITCSANSALSYMYWYQQKPDQSPKLWVHGTSNLASGVPSRFSGSGSGTDFTLTINSLEAEDAATYYCHHWSNTQWTFGGGTKVEIKRTVAAPSVFIFPPSDEQLKSGTASVVCLLNNFYPREAKVQWKVDNALQSGNSQESVTEQDSKDSTYSLSSTLTLSKADYEKHKVYACEVTHQGLSSPVTKSFNRGEC
heavy: not shown
B5: Antibody 2-8 (antibody, human IgG1, kappa)
light: ACPFPALELCGGPGSSPMPYDLYHPSGGEIVLTQSPDFQSVTPKEKVTITCSANSALSYMYWYQQKPDQSPKLWVHGTSNLASGVPSRFSGSGSGTDFTLTINSLEAEDAATYYCHHWSNTQWTFGGGTKVEIKRTVAAPSVFIFPPSDEQLKSGTASVVCLLNNFYPREAKVQWKVDNALQSGNSQESVTEQDSKDSTYSLSSTLTLSKADYEKHKVYACEVTHQGLSSPVTKSFNRGEC
heavy: not shown
B6: Antibody 2-1 (antibody, V domains shown)
VL: EIVLTQSPDFQSVTPKEKVTITCSANSALSYMYWYQQKPDQSPKLWVHGTSNLASGVPSRFSGSGSGTDFTLTINSLEAEDAATYYCHHWSNTQWTFGGGTKVEIKR
VH: QVQLVQSGAEVKKPGSSVKVSCKASGYTFTNYFMNWVRQAPGQGLEWMGRVDPEQGRADYAEKFKKRVTITADKSTSTAYMELSSLRSEDTAVYYCARRAMDNYGFAYWGQGTLVTVSSA
notes: Wild-type Fc region; Variable domains are stated for Antibody 2-6, another version of Antibody 2 that differs in the Fc region only; also called version of Antibody 2 having a wild-type Fc region
B7: Antibody 2-3 (antibody, V domains shown)
VL: EIVLTQSPDFQSVTPKEKVTITCSANSALSYMYWYQQKPDQSPKLWVHGTSNLASGVPSRFSGSGSGTDFTLTINSLEAEDAATYYCHHWSNTQWTFGGGTKVEIKR
VH: QVQLVQSGAEVKKPGSSVKVSCKASGYTFTNYFMNWVRQAPGQGLEWMGRVDPEQGRADYAEKFKKRVTITADKSTSTAYMELSSLRSEDTAVYYCARRAMDNYGFAYWGQGTLVTVSSA
notes: see m21; also called version of Antibody 2 having a S239D mutation, an I332E mutation in the Fc region, and two hinge region mutations
B8: Antibody 2-5 (antibody, V domains shown)
VL: EIVLTQSPDFQSVTPKEKVTITCSANSALSYMYWYQQKPDQSPKLWVHGTSNLASGVPSRFSGSGSGTDFTLTINSLEAEDAATYYCHHWSNTQWTFGGGTKVEIKR
VH: QVQLVQSGAEVKKPGSSVKVSCKASGYTFTNYFMNWVRQAPGQGLEWMGRVDPEQGRADYAEKFKKRVTITADKSTSTAYMELSSLRSEDTAVYYCARRAMDNYGFAYWGQGTLVTVSSA
notes: see m21; also called version of Antibody 2 having S239D, I332E, A330L mutations in the Fc region, and two hinge region mutations
B9: Antibody 2-4 (antibody, V domains shown)
VL: EIVLTQSPDFQSVTPKEKVTITCSANSALSYMYWYQQKPDQSPKLWVHGTSNLASGVPSRFSGSGSGTDFTLTINSLEAEDAATYYCHHWSNTQWTFGGGTKVEIKR
VH: QVQLVQSGAEVKKPGSSVKVSCKASGYTFTNYFMNWVRQAPGQGLEWMGRVDPEQGRADYAEKFKKRVTITADKSTSTAYMELSSLRSEDTAVYYCARRAMDNYGFAYWGQGTLVTVSSA
notes: Fc with S239D, I332E, A330L; also called version of Antibody 2 having S239D, I332E, and A330L mutations in the Fc region
B10: Antibody 2-2 (antibody, V domains shown)
VL: EIVLTQSPDFQSVTPKEKVTITCSANSALSYMYWYQQKPDQSPKLWVHGTSNLASGVPSRFSGSGSGTDFTLTINSLEAEDAATYYCHHWSNTQWTFGGGTKVEIKR
VH: QVQLVQSGAEVKKPGSSVKVSCKASGYTFTNYFMNWVRQAPGQGLEWMGRVDPEQGRADYAEKFKKRVTITADKSTSTAYMELSSLRSEDTAVYYCARRAMDNYGFAYWGQGTLVTVSSA
notes: Fc region with S239D and I332E; also called version of Antibody 2 having a S239D mutation and an I332E mutation in the Fc region; unmasked Antibody 2-2
B11: Antibody 1-2 (antibody, human IgG1, kappa)
light: DIVMTQTPLSLSVTPGQPASISCRSSQSLLNSDGNTYLYWYLQKPGQSPQLLIYLVSKLGSGVPNRFSGSGSGTDFTLKISRVEAEDVGVYYCVQGTHDPWTFGGGTKVEIKRTVAAPSVFIFPPSDEQLKSGTASVVCLLNNFYPREAKVQWKVDNALQSGNSQESVTEQDSKDSTYSLSSTLTLSKADYEKHKVYACEVTHQGLSSPVTKSFNRGEC
heavy: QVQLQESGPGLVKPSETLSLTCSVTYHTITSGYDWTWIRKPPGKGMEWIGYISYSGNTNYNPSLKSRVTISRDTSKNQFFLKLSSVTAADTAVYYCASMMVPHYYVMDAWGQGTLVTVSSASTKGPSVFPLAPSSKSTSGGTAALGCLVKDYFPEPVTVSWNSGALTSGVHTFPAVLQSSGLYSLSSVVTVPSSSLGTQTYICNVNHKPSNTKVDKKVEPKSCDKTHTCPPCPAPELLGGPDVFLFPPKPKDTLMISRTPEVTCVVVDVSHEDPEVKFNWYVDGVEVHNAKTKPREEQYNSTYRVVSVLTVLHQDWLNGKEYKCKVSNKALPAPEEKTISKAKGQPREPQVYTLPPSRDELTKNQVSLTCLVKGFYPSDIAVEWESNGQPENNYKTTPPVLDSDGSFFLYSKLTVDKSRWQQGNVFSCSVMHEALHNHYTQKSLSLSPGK
notes: also called version of Antibody 1 having a S239D mutation and an I332E mutation in the Fc region
B12: Antibody 1-1 (antibody, V domains shown)
VL: DIVMTQTPLSLSVTPGQPASISCRSSQSLLNSDGNTYLYWYLQKPGQSPQLLIYLVSKLGSGVPNRFSGSGSGTDFTLKISRVEAEDVGVYYCVQGTHDPWTFGGGTKVEIKR
VH: QVQLQESGPGLVKPSETLSLTCSVTYHTITSGYDWTWIRKPPGKGMEWIGYISYSGNTNYNPSLKSRVTISRDTSKNQFFLKLSSVTAADTAVYYCASMMVPHYYVMDAWGQGTLVTVSSA
notes: Humanized; wild type Fc region; Variable domains are stated for Antibody 1; full chains are not tied to the label Antibody 1-1; also called version of Antibody 1 having a wild type Fc region
B13: Antibody 2-8 (Activated) (antibody, not shown: small tags and cut ends)
light: EIVLTQSPDFQSVTPKEKVTITCSANSALSYMYWYQQKPDQSPKLWVHGTSNLASGVPSRFSGSGSGTDFTLTINSLEAEDAATYYCHHWSNTQWTFGGGTKVEIKRTVAAPSVFIFPPSDEQLKSGTASVVCLLNNFYPREAKVQWKVDNALQSGNSQESVTEQDSKDSTYSLSSTLTLSKADYEKHKVYACEVTHQGLSSPVTKSFNRGEC
heavy: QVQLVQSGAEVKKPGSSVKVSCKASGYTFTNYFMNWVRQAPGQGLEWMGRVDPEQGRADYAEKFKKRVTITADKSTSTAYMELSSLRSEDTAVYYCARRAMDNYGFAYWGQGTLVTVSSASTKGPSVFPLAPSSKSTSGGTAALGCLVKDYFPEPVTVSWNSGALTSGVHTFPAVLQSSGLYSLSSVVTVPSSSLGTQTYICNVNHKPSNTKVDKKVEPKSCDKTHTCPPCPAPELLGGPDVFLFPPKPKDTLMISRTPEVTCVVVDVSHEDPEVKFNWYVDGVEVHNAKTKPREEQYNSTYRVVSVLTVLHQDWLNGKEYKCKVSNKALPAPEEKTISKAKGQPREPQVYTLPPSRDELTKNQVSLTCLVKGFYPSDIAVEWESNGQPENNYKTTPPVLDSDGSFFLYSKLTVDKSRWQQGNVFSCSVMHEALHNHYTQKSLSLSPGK
B14: Antibody 2-9 (Activated) (antibody)
light: EIVLTQSPDFQSVTPKEKVTITCSANSALSYMYWYQQKPDQSPKLWVHGTSNLASGVPSRFSGSGSGTDFTLTINSLEAEDAATYYCHHWSNTQWTFGGGTKVEIKRTVAAPSVFIFPPSDEQLKSGTASVVCLLNNFYPREAKVQWKVDNALQSGNSQESVTEQDSKDSTYSLSSTLTLSKADYEKHKVYACEVTHQGLSSPVTKSFNRGEC
heavy: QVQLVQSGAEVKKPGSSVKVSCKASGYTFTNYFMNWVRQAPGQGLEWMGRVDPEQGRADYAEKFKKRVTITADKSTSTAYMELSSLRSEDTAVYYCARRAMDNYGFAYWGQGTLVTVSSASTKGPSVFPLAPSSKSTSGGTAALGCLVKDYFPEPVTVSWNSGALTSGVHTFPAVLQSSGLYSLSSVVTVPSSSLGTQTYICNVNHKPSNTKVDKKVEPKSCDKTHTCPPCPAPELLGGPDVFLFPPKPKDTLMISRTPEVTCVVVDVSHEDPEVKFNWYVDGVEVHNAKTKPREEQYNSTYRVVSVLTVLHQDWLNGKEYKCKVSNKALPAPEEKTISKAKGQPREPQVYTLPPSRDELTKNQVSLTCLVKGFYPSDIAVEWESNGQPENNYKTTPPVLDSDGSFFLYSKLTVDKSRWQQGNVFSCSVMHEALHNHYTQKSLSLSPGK
notes: not shown: remnant of the cleaved linker (part of HEQLTV and spacer SGG)
B15: Antibody 2-11 (Activated) (antibody, not shown: small tags and cut ends)
light: EIVLTQSPDFQSVTPKEKVTITCSANSALSYMYWYQQKPDQSPKLWVHGTSNLASGVPSRFSGSGSGTDFTLTINSLEAEDAATYYCHHWSNTQWTFGGGTKVEIKRTVAAPSVFIFPPSDEQLKSGTASVVCLLNNFYPREAKVQWKVDNALQSGNSQESVTEQDSKDSTYSLSSTLTLSKADYEKHKVYACEVTHQGLSSPVTKSFNRGEC
heavy: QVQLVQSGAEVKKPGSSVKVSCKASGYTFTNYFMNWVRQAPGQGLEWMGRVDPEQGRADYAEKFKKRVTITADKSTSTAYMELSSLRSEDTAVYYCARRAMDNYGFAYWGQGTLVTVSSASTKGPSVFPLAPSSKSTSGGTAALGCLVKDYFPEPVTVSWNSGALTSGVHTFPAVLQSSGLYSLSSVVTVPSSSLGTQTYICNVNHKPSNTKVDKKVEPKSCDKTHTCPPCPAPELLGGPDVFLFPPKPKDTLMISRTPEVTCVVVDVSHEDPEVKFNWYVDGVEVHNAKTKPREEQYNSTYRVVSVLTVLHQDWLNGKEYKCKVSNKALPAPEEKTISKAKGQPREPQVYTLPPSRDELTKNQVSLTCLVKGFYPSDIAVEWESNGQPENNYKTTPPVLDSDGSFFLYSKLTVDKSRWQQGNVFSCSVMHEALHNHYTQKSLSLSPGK

The target of one experiment is T1, human CTLA4-Fc (R&D Systems, #7268-CT) (human, UniProt P16410 36-162).
T1 construct: Bought; not shown: Fc part
T1 sequence (P16410 36-162 limits assumed): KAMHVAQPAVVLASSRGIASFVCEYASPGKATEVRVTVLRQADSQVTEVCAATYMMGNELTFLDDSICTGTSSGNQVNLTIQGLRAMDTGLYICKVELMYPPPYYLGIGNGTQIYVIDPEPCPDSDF
Description: low density antigen binding ELISA, human CTLA4-Fc coated; no protease. (In general: An ELISA detects its analyte on a solid surface through an enzyme-linked reagent.)
Turning to B1, the EC50 came out at 48.9 nM.
Regarding B2, a half-maximal response (EC50) required 3.3 nM. Against the preceding molecule, the EC50 is about 15-fold lower.
As for B3, the concentration giving a half-maximal response (EC50) was 14.2 nM. This EC50 lies about 4.3-fold higher than the previous one.
In turn, B4 registered an EC50 of 34.9 nM. This EC50 lies about 2.5-fold higher than the previous one.
Turning to B5, the EC50 was 54.8 nM.

Another experiment has as its target T1, human CTLA4-Fc (R&D Systems, #7268-CT). Description: low density antigen binding ELISA, human CTLA4-Fc coated at 1 µg/mL, anti-human kappa-HRP.
Molecule B6 had an EC50 of 0.44 nM.
The molecule B7 registered an EC50 of 0.4 nM.
The molecule B8 yielded an EC50 of 0.41 nM.
On the same count and under the same terms, then B9, with 0.4 nM; and B10, with 0.39 nM.
B11 registered a half-maximal effective concentration (EC50) of 0.32 nM.
The same measure, in the same setting: then B12, with 0.32 nM.

The target is the same in the next experiment. As to the kind of experiment: low density antigen binding ELISA, human CTLA4-Fc coated; after protease digestion.
As to B13, the EC50 came to 0.67 nM. That is a sub-nanomolar value.
Turning to B14, the EC50 worked out at 0.67 nM.
The same measure, in the same setting: then B15, with 0.62 nM.

A word on the EC50: it is the concentration needed to bring the measured effect to its halfway point. A higher EC50 goes with a need for much substance.
